Experimental data as given in patent publication US20200199244A1 (published 2020).
Where a chain is given by its changes, count along the chain named. Where “and” joins values, the source holds several entries; their conditions need not be identical. Identical values can stand only once.

T1: human CD40 (H76R, W109L, L121P) Fc fusion (human)
T1 construct: As m1 with H76R, W109L and L121P; also called hCD40-M5; not shown: human IgG1 Fc
T1 chain: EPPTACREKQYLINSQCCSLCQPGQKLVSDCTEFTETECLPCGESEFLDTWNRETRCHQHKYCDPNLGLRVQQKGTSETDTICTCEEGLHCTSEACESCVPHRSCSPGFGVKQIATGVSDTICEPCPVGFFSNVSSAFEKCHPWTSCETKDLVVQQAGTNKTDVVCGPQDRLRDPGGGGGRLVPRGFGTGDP

T2: wild type cynomolgus monkey CD40 Fc fusion (cynomolgus monkey; human)
T2 construct: also called wt-cyno-CD40; wt-cCD40; not shown: human IgG1 Fc
T2 chain: T1 chain with A95S, S106L, H142R, L172Q

T3: Macaca fascicularis CD40 (Macaca fascicularis (cynomolgus monkey), UniProt P25942 21-277 (human entry))
T3 chain: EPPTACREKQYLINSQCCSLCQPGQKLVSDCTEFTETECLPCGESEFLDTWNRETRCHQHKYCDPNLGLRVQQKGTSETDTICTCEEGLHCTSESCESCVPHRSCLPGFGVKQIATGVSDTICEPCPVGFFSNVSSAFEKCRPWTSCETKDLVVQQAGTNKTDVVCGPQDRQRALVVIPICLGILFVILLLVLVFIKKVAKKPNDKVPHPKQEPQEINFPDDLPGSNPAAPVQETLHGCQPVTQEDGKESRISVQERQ

B1: BMS3h-56-1 (other)
VH: EVQLLESGGGLVQPGGSLRLSCAASGFTFRDYEMWWVRQAPGKGLERVSAINPQGTRTYYADSVKGRFTISRDNSKNTLYLQMNSLRAEDTAVYYCAKLPFTFEDWGQGTLVTVSS
notes: domain antibody (dAb), single VH domain; also called 3h-56-l
B2: BMS3h-56-201 (other)
VH: B1 VH with T102Y, E104Q, D105E
notes: domain antibody (dAb): single human VH domain
B3: BMS3h-56-202 (other)
VH: B1 VH with F101T, T102Y, E104S, W106R
B4: BMS3h-56-203 (other)
VH: B1 VH with T102F, D105E
notes: as for B2
B5: BMS3h-56-206 (other)
VH: B1 VH with Y95H, F101M, T102F, S116N
B6: BMS3h-56-215 (other)
VH: B1 VH with Q54H, T56S, R57L, E104D
notes: as for B2
B7: BMS3h-106 (other)
VH: EVQLLESGGGLVQPGGSLRLSCAASGFTFSTYHMQWVRQAPGKGLEWVSMIDADGLGTYYADSVKGRFTISRDNSKNTLYLQMNSLRAEDTAVYYCAKPGPQFGQFDYWGQGTLVTVSS
B8: BMS3h-43 (other)
VH: EVQLLESGGGLVQPGGSLRLSCTASGFTFNMYEMSWVRQAPGKGLEWVSGISRRGFTTYYADSVKGRFTISRDNSKNTLYLQMNSLRAEDTAVYYCAKEPITYAMRYARFDYWGQGTLVTVSS
B9: BMS3h-56 (other)
VH: B1 VH with T102I, E104D, D105Y
B10: BMS3h-56-5 (other)
VH: B1 VH with K65M, E104D
B11: BMS3h-37 (other)
VH: EVQLLESGGGLVQPGGSLRLSCAASGFTFEWYEMQWVRQAPGKGLEWVSAISGDGYRTYYADSVKGRFTISRDNSKNTLYLQMNSLRAEDTAVYYCAKELGYFDYWGQGTLVTVSS
B12: BMS3h-37-2 (other)
VH: B11 VH with Q39R, Q108R
B13: BMS3h-38 (other)
VH: B11 VH with W31E, Y32E, Q35I, D54S, Y56G, R57S, L100P, G101F, Y102R
B14: BMS3h-41-3 (other)
VH: EVQLLEPGGGLVQPGGSLRLSCAASGFTFTEYEMIWVRKAPGKGMEWVSSISGNGANTYYADSVKGRFTISRDNSKNMLYLQMNSLRAEDTAVYYCAKEPLRFGYWGQGTLVTVSS
B15: BMS3h-107 (other)
VH: EVQLLESGGGLVQPGGSLRLSCAASGFTFSGYDMQWVRQAPGKGLEWVSTISASGVFTYYADSVKGRFTTSRDNSKNTLYLQMNSLRAEDTAVYYCAKYPNRFALNNFDYWGQGTLVTVSS
B16: BMS3h-197 (other)
VH: EVQLLESGGGLVQPGGSLRLSCAASGFTFGSAAMDWVRQAPGKGLEWVSSINDMGSNTYYADSVKGRFTISRDNSKNTLYLQMNSLRAEDTAVYYCAKQGGRFDYWGQGTLVTVSS
B17: BMS3h-131 (other)
VL: DIQMTQSPSSLSASVGDRVTITCRANSSILWALAWYQQKPGKAPKLLIESSSGLQSGVPSRFSGSGSGTDFTLTISSLQPEDFATYYCVQNAGWPGTFGQGTKVEIKR
B18: BMS3h-131-2 (other)
VL: B17 VL with N26D, G93V
B19: BMS3h-38-2 (other)
VH: EVQLLASGGGLVQPGGSLRLSCAASGFTFEEEEMIWVRQAPGKGLEWVSAISGSGGSTYYADSVKGRFTISRDNSKNTLYLQMNSLRAEDTAVYYCGKEPFRYDYWGQGTLVTVSS
B20: BMS3h-198-1 (other)
VH: EVQLLESGGGLVQPGGSLRLSCAASGSTIAGYEMWWVRQAPGKGLERVSAISGSGGSTYYADSVKGRFTISRDDSKNTLYLQMNSLRAEDTAVYYCARDPYSFDYWGQGTLVTVSS
notes: dAb, single VH
B21: BMS3h-43-5 (other)
VH: B8 VH with M31T, S52G, A104D, M105L, W113S
notes: dAb, single VH
B22: BMS3h-43-3 (other)
VH: B8 VH with S75F, A104D, W113G
notes: dAb, single VH
B23: BMS3h-193-15 (other)
VL: DIQMTQSPSSLSASVGDRVTITCRASRTIERRLNWYQQKPGKAPKLLIYLASRLQSGVPSRFSGSGSGTDFTLTISSLQPEDFATYYCHPYESPPLTFGQGTKVEIKR
notes: dAb, single VK
B24: BMS3h-198-3 (other)
VH: B20 VH with L11S, S25T, I29F, F103Y, T113S
notes: dAb, single VH
B25: BMS3h-41-10 (other)
VH: B14 VH with P7S, G9V, M45L, M78T, G104D, Y105N
notes: dAb, single VH
B26: BMS3h-41-3 (other)
VH: B14 VH
notes: dAb, single VH
B27: BMS3h-38-5 (other)
VH: B19 VH with A6G, Y103F
notes: dAb, single VH
B28: BMS3h-198-2 (other)
VH: B20 VH with L4P, S27F, I29F, V48I
notes: dAb, single VH
B29: BMS3h-38-8 (other)
VH: B19 VH with A6E, V48I, S71H, G97S, Y103F, W106R, Q108L
notes: dAb, single VH

Each binder was assayed against T4, human CD40 (W109L, L121P) Fc fusion (human, UniProt P25942 21-193) (assay: SPR ProteOn XPR36;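 further: surface plasmon resonance with CD40-Fc fusions captured through their Fc on an anti-human IgG chip, sensorgrams reference-subtracted against surfaces lacking CD40-Fc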).
T4 construct: As m1 with W109L and L121P; also called hCD40-M4; not shown: human IgG1 Fc

Row | Binder | binding result
1 | B1 | no binding (tested: 405 nM)

Target: T1, human CD40 (H76R, W109L, L121P) Fc …
Experiment: SPR ProteOn XPR36;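 further: surface plasmon resonance with CD40-Fc fusions captured through their Fc on an anti-human IgG chip, sensorgrams reference-subtracted against surfaces lacking CD40-Fc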
Method: (§1) Assays were performed on a BioRad ProteOn XPR36 SPR instrument. The SPR surfaces were prepared by immobilizing 8 μg/ml anti-human IgG(Fc) antibody (Biacore/GE Healthcare) in 10 mM sodium acetate pH 4.5 on a BioRad GLC sensor chip using standard ethyl(dimethylaminopropyl) carbodiimide (EDC)/N-hydroxysuccinimide (NHS) chemistry, with ethanolamine blocking. The running buffer for immobilization and kinetic binding analysis was 10 mM sodium phosphate, 130 mM sodium chloride, 0.05% tween 20, pH 7.1. CD40-Fc fusion proteins at concentrations of 20 μg/ml were captured in the vertical orientation on these surfaces via the Fc tail, and reference surfaces lacking CD40-Fc proteins were used for reference subtraction. […] The surfaces were regenerated in both horizontal and vertical orientations with 30 s pulses of 3 M MgCl₂ followed by running buffer at 60 μl/min. Sensogram data was double-referenced and then fitted to a 1:1 Langmuir model using BioRad ProteOn Manager V.2.1.0.38 software, to determine the association rate constant (ka), the dissociation rate constant (kd), and the equilibrium dissociation constant (KD).

Row | Binder | binding result
2 | B1 | no binding (tested: 405 nM)

Target: T2, wild type cynomolgus monkey CD40 Fc …
Experiment: SPR ProteOn XPR36;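 further: surface plasmon resonance with CD40-Fc fusions captured through their Fc on an anti-human IgG chip, sensorgrams reference-subtracted against surfaces lacking CD40-Fc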
Method: as §1

Row | Binder | binding result
3 | B1 | no binding (tested: 405 nM)

What follows are binders tested against human CD40 on RAMOS human B cells (human, UniProt P25942 21-277) (assay: cell-based or functional assay).

Row | Binder | EC50 ICAM1 cell assay [nM]
4 | B2 | 10
5 | B3 | 80
6 | B4 | 70
7 | B5 | 5
8 | B6 | 40

Each binder was assayed against human CD40 (human, UniProt P25942 21-277) (assay: cell-based or functional assay).

Row | Binder | hIZCD40L-driven Human B Cell Proliferation EC50 [nM] | CHO-hCD40L-driven DC Activation IL-12 EC50 [nM] | T-B cell MLR EC50 [nM] | CHO-hCD40L-driven Human B Cell Proliferation EC50 [nM]
9 | B7 | 437 | – | – | –
10 | B8 | 83 | – | – | –
11 | B9 | 713 | – | – | –
12 | B10 | 6 | – | – | –
13 | B11 | 3400 | – | – | –
14 | B12 | 5 | 13 | 198 | –
15 | B13 | 2800 | – | – | –
16 | B14 | 12 | – | – | –
17 | B15 | > 7000 | – | – | –
18 | B16 | 360 | – | – | –
19 | B17 | 2700 | – | – | –
20 | B18 | 55 | – | – | –
21 | B19 | 10 | 289 | 986 | 723

Target: T3, Macaca fascicularis CD40
Experiment: cell-based or functional assay

Row | Binder | hIZCD40L-driven Cyno B Cell Proliferation EC50 [nM]
22 | B7 | > 7000
23 | B8 | > 7000
24 | B9 | > 7000
25 | B10 | > 7000
26 | B11 | > 7000
27 | B12 | > 7000
28 | B13 | > 7000
29 | B14 | > 7000
30 | B15 | > 7000
31 | B16 | > 7000
32 | B17 | > 7000
33 | B18 | > 7000
34 | B19 | > 7000

Each binder was assayed against T5, human CD40 (BMS, CY24FEB06-01) (human, UniProt P25942 21-193) (assay: ELISA RBA, competition with IZ-CD40L;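 further: Neutravidin-coated 384-well plate, dAb–human CD40 complex bound for 2 h at room temperature, absorbance read at 450 nm after HCl stop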).
T5 construct: Soluble reagent of the bead and ELISA RBA; It is detected with an anti-human IgG (Fc) mAb, so it may be a CD40-Ig fusion
Method: (§2) Clear walled High Bind, 384-well plates (Corning, UK) were coated with 25 μl of 1 μg/ml Neutravidin in 0.2 M carbonate-bicarbonate buffer, pH 9.4 overnight at 4° C. The following day, assay plates were washed with 0.1% (v/v) Tween PBS buffer, blocked with 1% (w/v) BSA in PBS for 1 hour at room temperature and washed again. […] Following washing of the assay plate, the dAb:human CD40 complex was incubated in the assay plate at room temperature for 2 hours with gentle agitation. […] Absorbance signal was measured using a SpectraMax® M5e plate reader (Molecular Devices) at 450 nm following neutralization with 1M HCl solution.

Row | Binder | EC50 [nM]
35 | B20 | 12

These binders were tested against T6, human CD40 expressed on stably transfected CHO-DG44 cells (human, UniProt P25942 21-277) (assay: CHO-CD40 cell RBA, competition with IZ-CD40L).
T6 construct: also called CHO-CD40
Method: The mixture was incubated in the absence of light for 6 hours.

Row | Binder | EC50 [nM]
36 | B21 | 90
37 | B22 | 320
38 | B23 | 300
39 | B24 | 330
40 | B25 | 4300
41 | B26 | 200
42 | B27 | 1000
43 | B20 | 70
44 | B28 | 115
45 | B29 | 2800

Each binder was assayed against T7, human CD40 (BMS, CY24FEB06-01) (human, UniProt P25942 21-193) (assay: ELISA RBA, competition with IZ-CD40L for soluble human CD40;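 further: Neutravidin-coated 384-well plates, dAb–human CD40 complex incubated 2 h at room temperature, read-out as absorbance at 450 nm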).
T7 construct: Soluble human CD40 reagent of the ELISA RBA
Method: as §2

Row | Binder | EC50
46 | B2 | 3.7 nM and 2.3 nM
47 | B4 | 5.2 nM and 4.3 nM
48 | B6 | 3.2 nM and 4.6 nM
